Patent US20070036789A1 (NATIONAL CANCER CENTER, published 2007)

T1: phage containing the peptide of SEQ ID NO: 32
T1 construct: The phage coat fusion is not described
T1 peptide: HHPHFKPVSNSR

T2: phage containing the peptide of SEQ ID NO: 33
T2 construct: The phage coat fusion is not described
T2 peptide: KSLSRHDHIHHH


Experiments:
[1] = target: T1, phage containing the peptide of SEQ ID …; experiment: phage peptide library panned on the coated Fab, clones selected by EIA
Protocol: (§1) A 96-well plate (costar No. 3690) was coated with anti-HGF H61 Fab or anti-HGF H68 Fab dissolved in 25 μl of TBS solution at a concentration of 10 μg/ml per well. PHD peptide library (phage display of combinatorial peptide library) (new England Biolob.) was added to the well plate, and then, the well plate was kept for 2 hrs at room temperature. The well plate was washed with 0.5% (v/v) Tween 20 in PBS and eluted with 0.1 M HCl-glycine (pH 2.2). The washing steps were increased from 5 times in the first round to 10 times in the second round and 15 times in the subsequent rounds. Typically seven rounds of panning were carried out. After the last round of panning, the phage clones containing anti-HGF H61 Fab or anti-HGF H68 Fab were selected by EIA using anti-HGF H61 Fab or anti-HGF H68 Fab-coated ELISA plate and horseradish peroxidase-conjugated anti-M13 phage goat monoclonal antibody (Roche). The selected clones were subjected to nucleotide sequencing and the amino acid sequences were determined from the analyzed nucleotide sequences.
(§2) Nucleotide sequencing was performed according to the dye-labeled primer sequencing method (Chung et al., supra) using a sequencing primer of SEQ ID NO: 31. As a result, peptides encoding anti-HGF H61 and H68 Fabs deduced from the analyzed nucleotide sequences had the amino acid sequences of SEQ ID NOs: 32 and 33, respectively.

[2] = target: T3, c-Met (UniProt P08581 25-932, limits assumed); experiment: SPR, c-Met on CM5 chip, Fab injected alone
T3 construct: also called HGF receptor
T3 sequence (P08581 25-932 limits assumed): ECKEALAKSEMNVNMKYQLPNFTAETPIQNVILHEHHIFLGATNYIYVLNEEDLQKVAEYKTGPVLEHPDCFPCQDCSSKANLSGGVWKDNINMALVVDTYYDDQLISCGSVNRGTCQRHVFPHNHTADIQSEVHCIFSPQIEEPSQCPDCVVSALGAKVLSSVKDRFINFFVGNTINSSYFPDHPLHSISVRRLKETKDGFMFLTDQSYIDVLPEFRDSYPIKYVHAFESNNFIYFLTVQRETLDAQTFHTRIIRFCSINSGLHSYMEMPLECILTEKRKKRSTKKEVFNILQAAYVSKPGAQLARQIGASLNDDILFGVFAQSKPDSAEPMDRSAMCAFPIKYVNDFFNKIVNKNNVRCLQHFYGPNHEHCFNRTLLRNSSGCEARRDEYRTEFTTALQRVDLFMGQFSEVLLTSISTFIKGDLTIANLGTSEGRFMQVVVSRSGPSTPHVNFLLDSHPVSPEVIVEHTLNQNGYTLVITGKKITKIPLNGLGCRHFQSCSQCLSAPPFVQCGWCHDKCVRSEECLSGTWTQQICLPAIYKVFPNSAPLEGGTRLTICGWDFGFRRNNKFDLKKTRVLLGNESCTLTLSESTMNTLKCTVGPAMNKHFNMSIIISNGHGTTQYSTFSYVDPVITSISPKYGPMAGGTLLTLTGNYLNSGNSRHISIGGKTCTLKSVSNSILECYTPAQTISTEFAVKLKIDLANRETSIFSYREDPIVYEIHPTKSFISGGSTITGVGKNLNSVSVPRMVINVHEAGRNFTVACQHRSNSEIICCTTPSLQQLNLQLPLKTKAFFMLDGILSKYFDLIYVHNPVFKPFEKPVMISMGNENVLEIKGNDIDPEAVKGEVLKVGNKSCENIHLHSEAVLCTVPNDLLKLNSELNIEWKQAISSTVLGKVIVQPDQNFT
Protocol: To ascertain the fact that anti-HGF H68 Fab can inhibit the binding of HGF to c-Met in real time, c-Met was coupled to CM5 sensor chip through an amine coupling method. Thereafter, HGF alone was injected at a concentration of 50 nM, and premixed with anti-HGF H68 Fab of 5 different concentrations (50 nM, 250 nM, 500 nM, 1 μM and 1.5 μM) and soluble c-Met of 5 different concentrations (50 nM, 100 nM, 200 nM, 400 nM, 600 nM), respectively. Binding interaction was allowed to proceed in PBS buffer containing 0.005% surfactant P20 at a flow rate of 30 μl/min at 25° C. The surface was regenerated with 1 M NaCl/50 mM NaOH.
There was no binding of HGF in case when anti-HGF H68 Fab alone was injected.

[3] = target: T2, phage containing the peptide of SEQ ID …; experiment: phage peptide library panned on the coated Fab, clones selected by EIA
Protocol: as §1, §2

Row | binding result [1] | binding result [2] | binding result [3] | Binder
1 | binds | – | – | anti-HGF H61 Fab (Fab, V domains shown, Rabbit/human chimeric Fab: rabbit VH and VL joined to human CH1 and Ckappa from pComb3X; purified through its HA tag; also called clone 61; clone 61 Fab) VH: QEQLMESGGRLVNPGESLTLTCKASGFTFSSYYMSWVRQAPGKGLEWIGYIGTSSGTTYYANSVKGRFTISSDNAQNTVFLRMTSLTDSDTATYFCARGLGRINLWGPGTLVTVSS VL: ELVLTQTPSSMSAAVGGTVTINCQASQSVSNYLAWYQQKPGQPPKLLIYRASTLASGVPSRFSGSGSGTEFTLTISGMKAEDAATYYCQSGYYSAGATFGGGTNVEIKR
2 | binds | no binding | binds | anti-HGF H68 Fab (Fab, V domains shown, Rabbit/human chimeric Fab: rabbit VH and VL joined to human CH1 and Ckappa from pComb3X; purified through its HA tag; also called clone 68; clone 68 antibody) VH: QQQLVESGGRLVNPGESLTLTCKASGFTFSTYYMSWVRQAPGKGLEWIGYIGTSSGTTYYANSVKGRFTISSDNAQNTVFLQMTSLTDSDTATYFCARGLGRINLWGPGTLVTVSS VL: ELDLTQTPSSVSAAVGGTVTINCQASQSVSNLLAWYQQKPGQPPKLLIYGASNLESGVPSRFRGSGSGTEFTLTISGMKAEDAATYYCQSGYYSAGATFGAGTNVEIKR
